Experimental findings from patent US10906989 (dated 2021) are described below.

The assay concerns the target T1, staphylocoagulase SC(1-246), unlabeled (UniProt P17855 27-272).
T1 chain: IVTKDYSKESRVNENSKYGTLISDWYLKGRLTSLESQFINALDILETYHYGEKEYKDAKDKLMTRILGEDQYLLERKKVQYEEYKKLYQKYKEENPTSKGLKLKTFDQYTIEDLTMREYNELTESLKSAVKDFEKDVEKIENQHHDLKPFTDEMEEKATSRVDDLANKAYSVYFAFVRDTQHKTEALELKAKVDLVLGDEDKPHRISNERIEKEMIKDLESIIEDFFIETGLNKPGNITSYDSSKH
Nature of the assay: fluorescence competitive titration; competitor.

The Kd is the free concentration of one partner at which half of the binding sites on the other are occupied at equilibrium, for simple one-to-one binding.

B1: GMA-2105 murine monoclonal antibody (antibody, V domains shown)
VH: EVKLEESGGGLVQPGGSMKLSCAASGFTFSDAWMDWVRQSPEKGLEWVAEIRTKANNHATYYAESVKGRFTISRDDSKSSVYLQMNSLRAEDTGIYYCTNVYYGNNDVKDYWGQGTSVTVSP
VL: DIVMTQSQKFMSTSVGDRVSVTCKASQNVDIYVAWYQQKPGQSPKALIYSASYRFSGVPDRFTGSGSGTDFTLSISNVQSEDLAEYFCQQYNNYPYTFGGGTKLEIKR
In the case of B1, the Kd turned out to be 710 pM.

B2: Chimeric GMA-2105 (antibody, V domains shown)
VH: EVKLEESGGGLVQPGGSMKLSCAASGFTFSDAWMDWVRQSPEKGLEWVAEIRTKANNHATYYAESVKGRFTISRDDSKSSVYLQMNSLRAEDTGIYYCTNVYYGNNDVKDYWGQGTSVTVSP
VL: DIVMTQSQKFMSTSVGDRVSVTCKASQNVDIYVAWYQQKPGQSPKALIYSASYRFSGVPDRFTGSGSGTDFTLSISNVQSEDLAEYFCQQYNNYPYTFGGGTKLEIKR
B2 returned a Kd of 750 pM.
